According to patent US20070009938:

What was measured:
Assay in all cases: EMSA
[1] = test system: wt bZIP (GCN4 basic region - C/EBP leucine zipper hybrid), synthetic (artificial (yeast GCN4 / C/EBP))
[2] = test system: wt bZIP (GCN4 basic region - C/EBP leucine zipper hybrid), expressed (artificial (yeast GCN4 / C/EBP))
[3] = target: 18A alanine mutant bZIP (GCN4 basic region - C/EBP zipper) (artificial (yeast GCN4 / C/EBP)) (UniProt P03069); conditions: group statement
[4] = target: 4A alanine mutant bZIP (GCN4 basic region - C/EBP zipper) (artificial (yeast GCN4 / C/EBP)) (UniProt P03069); conditions: group statement
[5] = target: 11A alanine mutant bZIP (GCN4 basic region - C/EBP zipper) (artificial (yeast GCN4 / C/EBP)) (UniProt P03069); conditions: group statement
[6] = also DNase I footprinting (p65)
[7] = higher-order bandshifts excluded

Work on “TGCAGGAATGACTCATTGAAGGTT (double strand) [AP-1]” yielded a Kd ([1]; apparent monomeric Kd, pH 7.5) of 13 nM and a Kd ([2]; higher-order bandshifts excluded, FIG. 6 legend gives 568 nM for wt bZIP with AP-1 in another experiment (TKMC buffer)) of 4.8 nM.
Sequence “TGCAGGAATTGCGTGATGAAGGTT (double strand) [XRE1]” has a Kd ([1]; apparent monomeric Kd, pH 7.5) of 240 nM, a binding signal (fold weaker than AP-1) [3, 6] of 7 and a binding signal (fold weaker than AP-1) [4, 6] of 7. The binding signal (fold weaker than AP-1) [5, 6] was 7.
“TGCAGGAATCACTGAAGGTT (double strand) [Arnt E-box half site]” was tested, and the Kd ([1]; saturation not achieved) was greater than 4000 nM.
Sequence “TGCAGGAATGACTGAAGGTT (double strand) [AP-1 half site]” has a Kd ([1]; apparent monomeric Kd, pH 7.5) of 84 nM and a Kd [2, 7] of 23 nM.
Sequence “TGCAGGAAGACTAACCTGAAGGTT (double strand) [Partial site / NON2]” has a Kd ([1]; apparent monomeric Kd, pH 7.5) of 280 nM.
Work on “TGCAGGAACCACGTGGTGAAGGTT (double strand) [Max E-box]” yielded a Kd ([1]; saturation not achieved) of 840 nM, a binding signal (fold weaker than AP-1) ([3]; both E-box sites) of 10 and a binding signal (fold weaker than AP-1) ([4]; both E-box sites) of 10. It also gave a binding signal (fold weaker than AP-1) ([5]; both E-box sites) of 10.
With “TGCAGGAATCACGTGATGAAGGTT (double strand) [Arnt E-box]” the Kd ([1]; saturation not achieved) was 570 nM, the binding signal (fold weaker than AP-1) ([3]; both E-box sites) was 10 and the binding signal (fold weaker than AP-1) ([4]; both E-box sites) was 10. For the same sequence, the binding signal (fold weaker than AP-1) ([5]; both E-box sites) was 10.
Sequence “TGCAGGAAGCACGTAGTGAAGGTT (double strand) [HRE]” has a Kd ([1]; saturation not achieved) of 1400 nM, a binding signal (fold weaker than AP-1) [3, 6] of 7 and a binding signal (fold weaker than AP-1) [4, 6] of 7. For the same sequence, the binding signal (fold weaker than AP-1) [5, 6] was 7.
For “TGCAGGAATGACGTCATGAAGGTT (double strand) [CRE]”, the Kd ([1]; apparent monomeric Kd, pH 7.5) was 12 nM.
Sequence “TGCAGGAATTGCTGAAGGTT (double strand) [C/EBP half site]” has a Kd ([1]; saturation not achieved) greater than 5000 nM and a Kd ([2]; saturation not achieved) greater than 1500 nM.
“TGCAGGAATTGCGCAATGAAGGTT (double strand) [C/EBP]” was tested, and the Kd ([1]; apparent monomeric Kd, pH 7.5) was 120 nM, the binding signal (fold weaker than AP-1) [3, 6] was 3 and the binding signal (fold weaker than AP-1) [4, 6] was 3. The Kd [2, 7] was 29 nM and the binding signal (fold weaker than AP-1) [5, 6] was 3.
For “GATCTGGATGACTCATTTTTTTTT (double strand) [WT AP-1 (his3 flanks)]”, the Kd ([1]; apparent monomeric Kd, 2 mM MgCl2, 1 mM CaCl2, pH 7.5, 200 mM guanidine HCl) was 13 nM.
